Biological target: T1, recombinant GST-tagged HSC70 (wild type) (human, UniProt P11142-1 1-646)
T1 construct: HSC70, human HSPA8 cDNA in pGEX-6P-1; also called GST-HSC70; GST-HSC70 WT; source: BL21-Rosetta E. coli, purified (Glutathione Sepharose 4 Fast Flow, eluted with reduced glutathione)
Assay: pull-down; Strep-tagged CSN held on Streptactin Sepharose, HSC70 at a 1:5 ratio, room temperature; with or without 5 µM NR peptide; Coomassie or immunoblot
Conditions: both partners purified

T1 sequence (P11142 whole entry): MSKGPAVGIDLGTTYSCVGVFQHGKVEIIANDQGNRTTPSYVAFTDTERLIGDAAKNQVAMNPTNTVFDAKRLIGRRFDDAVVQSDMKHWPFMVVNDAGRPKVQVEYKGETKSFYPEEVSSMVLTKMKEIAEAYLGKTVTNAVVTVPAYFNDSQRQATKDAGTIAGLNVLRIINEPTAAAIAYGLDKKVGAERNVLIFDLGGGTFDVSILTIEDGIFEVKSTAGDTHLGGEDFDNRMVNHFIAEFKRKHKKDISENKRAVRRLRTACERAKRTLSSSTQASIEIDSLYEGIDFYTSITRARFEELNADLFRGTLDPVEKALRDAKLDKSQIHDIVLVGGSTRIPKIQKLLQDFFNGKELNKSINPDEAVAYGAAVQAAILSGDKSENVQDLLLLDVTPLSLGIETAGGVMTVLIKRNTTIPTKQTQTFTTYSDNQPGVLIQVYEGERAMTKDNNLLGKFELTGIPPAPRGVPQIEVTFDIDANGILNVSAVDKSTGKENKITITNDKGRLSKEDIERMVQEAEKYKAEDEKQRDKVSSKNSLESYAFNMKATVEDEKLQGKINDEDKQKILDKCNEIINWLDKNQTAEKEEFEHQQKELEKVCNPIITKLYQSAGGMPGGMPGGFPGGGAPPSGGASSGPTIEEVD

binding result: binds
B1: NR peptide (an HSC70 model substrate) (peptide)
peptide: NRLLLTGC
notes: NR peptide, HSC70 model substrate (Xu et al, 2012)

Reference: PMC11894141 (EMBO Reports, 2025)
